# Measurements: patent publication US20150125479A1
# Molecular target: RSV fusion (F) glycoprotein (respiratory syncytial virus) (UniProt P12568)
# Experiment: SPR (Biacore); the partner is not named in the row, RSV F protein is taken from the legend of FIG. 4
substance,measurement,value
"NUMAX™ (motavizumab), MEDI-524 Mab (antibody)",Kd,4 pM
